For series [1], the target named is T1, YTHDF3 wild type (UniProt Q7Z739 1-585).
T1 sequence: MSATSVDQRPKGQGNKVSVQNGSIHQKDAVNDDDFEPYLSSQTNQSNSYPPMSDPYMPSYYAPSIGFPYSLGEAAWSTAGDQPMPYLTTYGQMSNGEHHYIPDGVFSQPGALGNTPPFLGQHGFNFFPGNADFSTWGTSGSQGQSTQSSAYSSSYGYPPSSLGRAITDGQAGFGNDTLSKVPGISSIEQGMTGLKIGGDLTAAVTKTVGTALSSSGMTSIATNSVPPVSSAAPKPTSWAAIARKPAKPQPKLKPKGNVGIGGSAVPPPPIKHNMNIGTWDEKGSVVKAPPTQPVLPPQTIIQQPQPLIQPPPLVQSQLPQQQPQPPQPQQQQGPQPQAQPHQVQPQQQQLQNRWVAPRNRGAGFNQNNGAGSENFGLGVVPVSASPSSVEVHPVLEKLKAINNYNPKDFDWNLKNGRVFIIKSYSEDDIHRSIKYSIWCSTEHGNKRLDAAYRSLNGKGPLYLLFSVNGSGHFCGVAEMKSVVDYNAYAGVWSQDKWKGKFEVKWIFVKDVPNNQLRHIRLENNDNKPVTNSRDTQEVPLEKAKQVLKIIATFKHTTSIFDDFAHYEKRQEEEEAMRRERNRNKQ
The experiment in a line: EMSA; SPR: 1x HBS-EP+, biotin-DNA on SA chip (~500 RU), 30 ul/min; EMSA: LightShift kit, 30 C 20 min, then 2% glutaraldehyde on ice 15 min, 5% native gel; pull-down:
Conditions: protein: recombinant, tags: His. A general note: In EMSA bound probe runs differently from free probe, usually more slowly.

A further series deals with T2, YTHDF3-His (UniProt Q7Z739 1-585).
T2 construct: YTHDF3 inserted into pET 26b vector; pET26b would give a C-terminal His tag (surmise); also called recombinant YTHDF3; wild-type YTHDF3; source: E. coli BL21 (DE3), purified (His-tag protein purification kit); also coexpressed with ALKBH1 in E. coli, in lysate
T2 sequence (looked up): T1 sequence
The experiment in a line: native gel or EMSA; recombinant ALKBH1 and increasing recombinant YTHDF3 with biotin-labeled 6mA-dsDNA oligos, 30 °C 20 min, 2% glutaraldehyde on ice 15 min, 5% nondenaturing gel. Conditions: both partners purified.

The target in series [2] is T3, YTHDF3-His MT6mA (W438R/W492R) (UniProt Q7Z739 1-585, W438R | W492R).
T3 construct: YTHDF3 with W438R/W492R in the YTH domain, in pET 26b vector; also called YTHDF3-MT6mA-His; YTHDF3 W438R/W492R mutant; source: E. coli BL21 (DE3), purified (His-tag protein purification kit)
T3 sequence (looked up): T1 sequence with W438R, W492R
The experiment in a line: pull-down; GST pull-down: recombinant YTHDF3-His proteins incubated with recombinant ALKBH1-GST protein beads at 4 °C for 1 h, washed three times, eluted with reduced L-glutathione, western blot. To be noted: both partners purified.

Series [3] concerns the target T1, YTHDF3 wild type. The experiment in a line: EMSA, pull-down; SPR: 1x HBS-EP+, biotin-DNA on SA chip (~500 RU), 30 ul/min; EMSA: LightShift kit, 30 C 20 min, then 2% glutaraldehyde on ice 15 min, 5% native gel; pull-down:
Conditions: protein: recombinant, tags: His.

For a further series, the target named is T4, ALKBH1;YTHDF3 wild type (Homo sapiens?;Homo sapiens?, UniProt Q13686;Q7Z739 1-389;1-585, |).
T4 sequence 1: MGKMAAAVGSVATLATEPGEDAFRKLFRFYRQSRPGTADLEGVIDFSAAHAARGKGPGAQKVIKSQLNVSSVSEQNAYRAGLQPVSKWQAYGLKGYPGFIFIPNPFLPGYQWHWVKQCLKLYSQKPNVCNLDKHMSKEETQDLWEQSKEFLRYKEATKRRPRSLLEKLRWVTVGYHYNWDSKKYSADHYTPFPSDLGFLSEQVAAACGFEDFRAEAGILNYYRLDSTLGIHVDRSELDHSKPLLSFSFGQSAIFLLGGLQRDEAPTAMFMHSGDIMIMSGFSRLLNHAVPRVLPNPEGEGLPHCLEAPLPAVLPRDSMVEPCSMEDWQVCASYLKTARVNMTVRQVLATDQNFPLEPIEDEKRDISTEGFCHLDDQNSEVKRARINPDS
T4 sequence 2: T1 sequence
The experiment in a line: pull-down; YTHDF3 increases ALKBH1 binding; SPR: 1x HBS-EP+, biotin-DNA on SA chip (~500 RU), 30 ul/min; EMSA: LightShift kit, 30 C 20 min, then 2% glutaraldehyde on ice 15 min, 5% native gel; pull-down:
To be noted: protein: recombinant;recombinant.

Where [4] appears, read: label: 3' biotin strand 1, duplex with bulge of unpaired nt in strand 1 around 6mA.
[5] abbreviates: label: 3' biotin strand 1, duplex with internal mismatch bubble around 6mA.

Substitutions are numbered along the chain they refer to.

We go through 6 molecules from publication PMC12402098, “YTHDF3 recognizes DNA N6-methyladenine and recruits ALKBH1 for 6mA removal from genomic DNA” (The EMBO Journal, 2025).

B1: ss-m6A-oligo (ssRNA)
RNA: CGUCUCGGACUCGGACUGCU
modifications: N6-methyladenosine at A9
Turning to B1, the binding result in the series with YTHDF3 wild type [1] (label: 5' biotin) is “binds”.

B2: ALKBH1-GST (enzyme, UniProt Q13686 1-389, looked up)
chain: T4 sequence 1
notes: ALKBH1 inserted into pGEX vector; it would add GST at the N-terminus (surmise). 'Recombinant ALKBH1' of EMSA, DNA pull-down and demethylase assays may be this protein or ALKBH1-His; also called recombinant ALKBH1; A1; source: E. coli BL21 (DE3), purified (glutathione Sepharose; on beads or eluted with reduced L-glutathione)
Regarding B2, the binding result (with YTHDF3-His; in series [2]) was “binds” each time.

B3: Bulge-6mA (mixed)
DNA 1: AACTTCGTGCAGGCATGGGATCTTGTCTACT
DNA 2: AGTAGACACATGCCTGCACGAAGTT
modifications: N6-methyl-dA at A20 of strand 1
For B3, the binding result with YTHDF3 wild type [3] (setting [4]) and in the series with ALKBH1;YTHDF3 wild type (setting [4]) was “binds” in each case.

B4: ss-6mA (ssDNA)
DNA: B3 DNA 1
modifications: N6-methyl-dA at A20
With B4, the binding result with YTHDF3 wild type [3] (label: 3' biotin) and with ALKBH1;YTHDF3 wild type (label: 3' biotin) was “binds” in each case.

B5: Bubble-6mA (mixed)
DNA 1: B3 DNA 1
DNA 2: AGTAGACAGTCGATCATGCCTGCACGAAGTT
modifications: N6-methyl-dA at A20 of strand 1
B5: the binding result with YTHDF3 wild type [3] (setting [5]) and with ALKBH1;YTHDF3 wild type (setting [5]) was “binds” in each case.

B6: tRNA-m1A-oligo (ssRNA)
RNA: CCCGGUUCGAUUCCCGG
modifications: N1-methyladenosine at A10
As for B6, in the series with YTHDF3 wild type [1] (label: 3' biotin), the binding result is “no binding”.
